The values that follow come from paper PMC3338918.

For assay [1], the target named is VEGF Trap (aflibercept) (human). The assay is described as follows: KinExA solution equilibrium assay; KinExA 3000, room temperature (25°C); VEGF Trap (1–50 pM) equilibrated 10–96 h with varying ligand; unbound inhibitor captured on VEGF-A165-coupled Azlactone beads and detected with Cy5 anti-human IgG; one-site homogeneous binding model.
For assay [2] the target is unchanged. The assay is described as follows: SPR; Biacore 3000, CM5 chip, 25°C, HBS-T (10 mM Hepes, 150 mM NaCl, 3.4 mM EDTA, 0.05% polysorbate 20, pH 7.4); VEGF Trap or receptor-Fc captured at low density on amine-coupled Protein A, ligands injected (1.0–0.062 nM VEGF-A, 2.5–0.156 nM VEGF-B(10-108), 5.0–0.078 nM PlGF); kd of VEGF-A ligands by the 'fixed kd' procedure on a Biacore 2000 (~2–3 h); KD = kd/ka.

The target in a further assay is human VEGFR1-hFc (human) (UniProt P17948).
human VEGFR1-hFc (human), sequence (P17948 27-758): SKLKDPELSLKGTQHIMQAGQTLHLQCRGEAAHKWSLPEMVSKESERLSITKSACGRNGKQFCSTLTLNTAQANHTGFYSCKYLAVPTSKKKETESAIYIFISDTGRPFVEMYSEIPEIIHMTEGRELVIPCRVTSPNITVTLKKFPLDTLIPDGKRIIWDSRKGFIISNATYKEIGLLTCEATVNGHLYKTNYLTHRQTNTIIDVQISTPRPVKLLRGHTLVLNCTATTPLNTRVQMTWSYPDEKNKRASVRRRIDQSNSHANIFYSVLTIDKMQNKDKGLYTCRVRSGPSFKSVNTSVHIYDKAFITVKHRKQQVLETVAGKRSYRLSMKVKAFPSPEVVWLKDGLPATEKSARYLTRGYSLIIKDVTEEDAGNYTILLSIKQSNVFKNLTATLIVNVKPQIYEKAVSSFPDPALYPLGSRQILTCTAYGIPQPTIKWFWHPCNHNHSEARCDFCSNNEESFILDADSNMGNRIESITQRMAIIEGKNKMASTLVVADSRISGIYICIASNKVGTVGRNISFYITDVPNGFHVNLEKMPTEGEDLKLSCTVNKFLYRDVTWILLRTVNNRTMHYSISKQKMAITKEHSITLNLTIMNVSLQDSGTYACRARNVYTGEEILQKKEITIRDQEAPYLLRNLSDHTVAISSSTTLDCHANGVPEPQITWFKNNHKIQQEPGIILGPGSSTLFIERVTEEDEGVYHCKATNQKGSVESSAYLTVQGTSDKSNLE

VEGF Trap (aflibercept) (human), sequence (chain, INN chains, looked up, as listed by the source): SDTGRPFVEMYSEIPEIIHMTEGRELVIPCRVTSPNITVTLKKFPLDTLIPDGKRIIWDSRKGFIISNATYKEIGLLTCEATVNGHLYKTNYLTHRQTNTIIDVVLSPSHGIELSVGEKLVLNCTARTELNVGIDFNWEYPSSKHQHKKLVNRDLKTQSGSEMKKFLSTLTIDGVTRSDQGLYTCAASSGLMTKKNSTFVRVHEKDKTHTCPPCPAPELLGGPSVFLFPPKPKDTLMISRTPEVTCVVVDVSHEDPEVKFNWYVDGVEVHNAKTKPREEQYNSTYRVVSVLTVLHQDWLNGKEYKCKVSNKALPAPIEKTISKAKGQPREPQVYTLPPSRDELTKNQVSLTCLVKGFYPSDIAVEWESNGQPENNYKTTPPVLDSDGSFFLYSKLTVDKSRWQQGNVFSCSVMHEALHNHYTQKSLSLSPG

B1: human PlGF-2 (ligand)
chain: LPAVPPQQWALSAGNGSSEVEVVPFQEVWGRSYCRALERLVDVVSEYPSEVEHMFSPSCVSLLRCTGCCGDENLHCVPVETANVTMQLLKIRSGDRPSYVELTFSQHVRCECRPLREKMKPERRRPKGRGKRRREKQRPTDCHLCGDAVPRR
In turn, B1 returned a dissociation constant Kd in assay [1] of 0.0207 nM. Besides, in assay [2], the Kd was 0.0389 nM, the koff was determined as 6.81e-05 s⁻¹ and the kon came to 1.75e+06 M⁻¹ s⁻¹. In the assay with human VEGFR1-hFc (human), this molecule showed an EC50 of luciferase activation in HEK293/VEGFR1 cells (dose response, 0.022 pM to 4.0 nM) of 29 pM.

B2: murine PlGF-2 (ligand)
chain: VHSQGALSAGNNSTEVEVVPFNEVWGRSYCRPMEKLVYILDEYPDEVSHIFSPSCVLLSRCSGCCGDEGLHCVPIKTANITMQILKIPPNRDPHFYVEMTFSQDVLCECRPILETTKAERRKTKGKRKRSRNSQTEEPHP
With B2, the dissociation constant Kd in assay [2] came to 0.00332 nM. The same molecule came in with an EC50 of luciferase activation in HEK293/VEGFR1 cells (dose response, 0.022 pM to 4.0 nM) with human VEGFR1-hFc (human) of 10 pM.
